Assay results taken from ChEMBL document CHEMBL1136363, “Rational approaches towards reversible inhibition of type B monoamine oxidase. Design and evaluation of a novel 5H-Indeno[1,2-c]pyridazin-5-one derivative” (Bioorg Med Chem Lett, 2003).

Assays:
[1] = substrate: CN1CC=C(C2CCCN2C)CC1; experiment: Km value for Monoamine oxidase B was determined in baboon liver tissue.; set-up: species or system Papio hamadryas
[2] = substrate: CN1CC=C(C2CCCN2C)CC1; experiment: Km value for Monoamine oxidase A was determined in human placental tissue

Protein	Km [1] [µM]	Km [2] [µM]
Amine oxidase [flavin-containing] B (Homo sapiens) (protein) MSNKCDVVVVGGGISGMAAAKLLHDSGLNVVVLEARDRVGGRTYTLRNQKVKYVDLGGSYVGPTQNRILRLAKELGLETYKVNEVERLIHHVKGKSYPFRGPFPPVWNPITYLDHNNFWRTMDDMGREIPSDAPWKAPLAEEWDNMTMKELLDKLCWTESAKQLATLFVNLCVTAETHEVSALWFLWYVKQCGGTTRIISTTNGGQERKFVGGSGQVSERIMDLLGDRVKLERPVIYIDQTRENVLVETLNHEMYEAKYVISAIPPTLGMKIHFNPPLPMMRNQMITRVPLGSVIKCIVYYKEPFWRKKDYCGTMIIDGEEAPVAYTLDDTKPEGNYAAIMGFILAHKARKLARLTKEERLKKLCELYAKVLGSLEALEPVHYEEKNWCEEQYSGGCYTTYFPPGILTQYGRVLRQPVDRIYFAGTETATHWSGYMEGAVEAGERAAREILHAMGKIPEDEIWQSEPESVDVPAQPITTTFLERHLPSVPGLLRLIGLTTIFSATALGFLAHKRGLLVRV	60.9	–
Amine oxidase [flavin-containing] A (Homo sapiens) (protein) MENQEKASIAGHMFDVVVIGGGISGLSAAKLLTEYGVSVLVLEARDRVGGRTYTIRNEHVDYVDVGGAYVGPTQNRILRLSKELGIETYKVNVSERLVQYVKGKTYPFRGAFPPVWNPIAYLDYNNLWRTIDNMGKEIPTDAPWEAQHADKWDKMTMKELIDKICWTKTARRFAYLFVNINVTSEPHEVSALWFLWYVKQCGGTTRIFSVTNGGQERKFVGGSGQVSERIMDLLGDQVKLNHPVTHVDQSSDNIIIETLNHEHYECKYVINAIPPTLTAKIHFRPELPAERNQLIQRLPMGAVIKCMMYYKEAFWKKKDYCGCMIIEDEDAPISITLDDTKPDGSLPAIMGFILARKADRLAKLHKEIRKKKICELYAKVLGSQEALHPVHYEEKNWCEEQYSGGCYTAYFPPGIMTQYGRVIRQPVGRIFFAGTETATKWSGYMEGAVEAGERAAREVLNGLGKVTEKDIWVQEPESKDVPAVEITHTFWERNLPSVSGLLKIIGFSTSVTALGFVLYKYKLLPRS	–	52
